Test results taken from patent publication US20230303674A1 (BETH ISRAEL DEACONESS MEDICAL CENTER, published 2023).
Ends that are not written are not given here.

Assays:
antibody G1 Fab fragment [1] = assay: Biacore competition: G1 Fab (50 nM) pre-incubated 1 h with 10 µM competing peptide, flowed over N-biotinylated human α-CGRP on SA chip
Text: (§1) Y axis represents percentage of binding blocked by the presence of the competing peptide compared with the binding in the absence of the competing peptide.
(§2) All these peptides are amidated at the C-terminus.

antibody G1 Fab fragment [2] = assay: Biacore, 50 nM G1 Fab with 10 µM peptide, over human α-CGRP on chip
Text: as §1, §2

antibody G1 Fab fragment [3] = assay: Biacore competition: G1 Fab (50 nM) pre-incubated with competing peptide, flowed over human α-CGRP on SA chip
Text: as §1, §2

Chain of antibody G1 Fab fragment (VH, as listed by the source, chain 1 of 2): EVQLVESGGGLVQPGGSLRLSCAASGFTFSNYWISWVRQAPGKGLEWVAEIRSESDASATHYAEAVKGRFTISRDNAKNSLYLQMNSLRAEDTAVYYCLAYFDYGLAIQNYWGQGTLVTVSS
Chain of antibody G1 Fab fragment (VL, as listed by the source, chain 2 of 2): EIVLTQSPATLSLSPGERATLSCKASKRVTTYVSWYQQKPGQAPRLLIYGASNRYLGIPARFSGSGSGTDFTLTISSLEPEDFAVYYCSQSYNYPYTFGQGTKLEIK

Binder	% Binding Blocked (antibody G1 Fab fragment [1])	% of binding blocked (antibody G1 Fab fragment [2])	binding result (antibody G1 Fab fragment [3])
SGGVVKNNFVPTNVGSKAF-OH (free C-terminal carboxyl, not amidated; also called 19-37 (not amidated at the C-terminus)) [human α-CGRP 19-37-COOH]	83.3%		
ACDTATCVTHRLAGLLSRSGGVVKNNFVPTNVGSKA-OH (ends and bridges not checked, free C-terminal carboxyl, not amidated; also called 1-36 (not amidated at the C-terminus)) [human α-CGRP 1-36-COOH]	40.6%	~40%	
ACDTATCVTHRLA-OH (ends and bridges not checked, not amidated) [human α-CGRP 1-13-COOH]			no binding (tested: 10 µM)
ACDTATCVTHRLAGLLSRS-OH (ends and bridges not checked, not amidated) [human α-CGRP 1-19-COOH]			no binding (tested: 10 µM)
